Test results as given in patent publication US20240002497A1 (Merck Sharp & Dohme, published 2024).

Legend:
[1] = molecular target: T1, huNav1.7α + β1-β2-β3 (human, UniProt Q15858 1-1988; A5A6L6 19-218; O60939 30-215; Q2KI11 23-215); assay: binding FACS, CHO FlpIn cells
T1 construct: Cell line (CHO FlpIn, HEK FlpIn, transient HEK293T) is named under assay; also called huNav1.7-beta1-beta2-beta3; human Nav1.7α with Navβ1, Navβ2 and Navβ3
Method in brief: (§1)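 Flow cytometry binding assay on stable CHO FlpIn cell lines expressing Nav1.7α (human wild type, single DI S5-S6 point variants, or rhesus) with β1-β2-β3. Cells in FACS buffer (PBS, 10% FBS, NaN₃) were plated at 1×10^5 cells/well in 96-well V-bottom plates. FLAG3-tagged ISVDs were added for 30 minutes at 4° C and detected with murine anti-Flag. Dead cells were excluded using 1 μg/mL propidium iodide, and EC50 was determined.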

[2] = molecular target: T2, huNav1.7α(F276V) + β1-β2-β3 (human, UniProt Q15858 1-1988; A5A6L6 19-218; O60939 30-215; Q2KI11 23-215); assay: binding FACS, CHO FlpIn cells
T2 construct: polyprotein as encoded, P2A sites liberate the subunits; the entry already carries F276V; also called huNav1.7(F276V)-beta1-beta2-beta3
Method in brief: as §1

[3] = molecular target: T3, huNav1.7α(R277Q) + β1-β2-β3 (human); assay: binding FACS, CHO FlpIn cells
T3 construct: polyprotein as encoded; the entry already carries R277Q; also called huNav1.7(R277Q)-beta1-beta2-beta3
Method in brief: as §1

[4] = molecular target: T4, huNav1.7α(E281V) + β1-β2-β3 (human); assay: binding FACS, CHO FlpIn cells
T4 construct: polyprotein as encoded; the entry already carries E281V; also called huNav1.7(E281V)-beta1-beta2-beta3
Method in brief: as §1

[5] = molecular target: T5, huNav1.7α(V331M) + β1-β2-β3 (human); assay: binding FACS, CHO FlpIn cells
T5 construct: polyprotein as encoded; the entry already carries V331M; also called huNav1.7(V331M)-beta1-beta2-beta3
Method in brief: as §1

[6] = molecular target: T6, huNav157chim4 + β1-β2-β3 (human, UniProt Q15858 44-1988; A5A6L6 19-218; O60939 30-215; Q2KI11 23-215); assay: FACS, transiently transfected HEK293T cells
T6 construct: DII, DIII, DIV from Nav1.7α, DI from Nav1.5α; also called huNav157 chimera 4
Method: (§2) Binding of the ISVDs to cell-expressed Nav1.7α was detected via murine anti-Flag (Sigma, catalog #F1804). Briefly, cells were resuspended in FACS buffer (PBS, 10% FBS, NaN₃) and transferred to a 96-well V-bottom plate at 1×10^5 cells/well. Purified FLAG3-tagged ISVD was diluted in FACS buffer and added to the cells for 30 minutes at 4° C. […] Prior to the read-out, the samples were resuspended in 1 μg/mL propidium iodide (Sigma, catalog #P4170) to exclude dead cells. Between each step, the cells were centrifuged for 5 minutes at 200 grams and washed with 100 μL/well FACS buffer.
(§3) FACS binding studies (as described above) were performed on HEK293T cells transiently transfected with expression vectors encoding a huNav1.7α or rhNav1.7α fused at the C-terminus via a P2A viral peptide linker to a single polypeptide encoding sodium channel beta subunits Navβ1, Navβ2, and Navβ3 in tandem (β1-β2-β3; SEQ ID NO:21). Similarly, HEK293T cells transiently transfected with expression vectors encoding chimeric variants of huNav1.7α in which individual domains are replaced by their huNav1.5α counterparts (chimeras 1 to 4 in FIG. 16) or with chimeric variants of huNav1.5 in which individual domains are replaced by their huNav1.7α counterparts (chimeras 5 to 8 in FIG. 16) fused at the C-terminus via a P2A viral peptide linker to β1-β2-β3 as above. See Table 7 for description of the expression vectors encoding the chimeras, Table 21 and FIG. 16).

[7] = molecular target: T7, huNav157chim5 + β1-β2-β3 (human); assay: FACS, transiently transfected HEK293T cells
T7 construct: DI, DII, DIII from Nav1.5α, DIV from Nav1.7α; also called huNav157 chimera 5
Method: as §2, §3

[8] = molecular target: T8, huNav157chim6 + β1-β2-β3 (human); assay: FACS, transiently transfected HEK293T cells
T8 construct: DI, DII, DIV from Nav1.5α, DIII from Nav1.7α; also called huNav157 chimera 6
Method: as §2, §3

[9] = molecular target: T9, huNav157chim7 + β1-β2-β3 (human); assay: FACS, transiently transfected HEK293T cells
T9 construct: DI, DIII, DIV from Nav1.5α, DII from Nav1.7α; also called huNav157 chimera 7
Method: as §2, §3

[10] = molecular target: T10, huNav157chim12 + β1-β2-β3 (human, UniProt Q15858 1-1988; A5A6L6 19-218; O60939 30-215; Q2KI11 23-215); assay: FACS, transiently transfected HEK293T cells
T10 construct: DI S5-S6 from Nav1.5α, rest Nav1.7α; also called huNav157 chimera 12
Method: as §2, §3

[11] = molecular target: T11, huNav157chim1 + β1-β2-β3 (human, UniProt Q15858 1-1962; A5A6L6 19-218; O60939 30-215; Q2KI11 23-215); assay: FACS, transiently transfected HEK293T cells
T11 construct: DI, DII, DIII from Nav1.7α, DIV from Nav1.5α; fused by P2A to β1-β2-β3; also called huNav157 chimera 1
Method: as §2, §3

[12] = molecular target: T1, huNav1.7α + β1-β2-β3; assay: competition FACS, HEK FlpIn cells, vs EC30 of CMYC3-F0103265B04
Method in brief: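 HEK FlpIn cells expressing huNav1.7α+β1-β2-β3 (1×10⁵/well) were incubated 1.5 h at 4 °C with a dilution series of purified ISVD plus CMYC3-tagged F0103265B04 at EC30-equivalent concentration in PBS, 2% FBS, 0.05% NaN₃. Flow cytometry read-out with 5 nM TOPRO3 to exclude dead cells.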

EC50 [1]: 30 nM | EC50 [2]: 26 nM | EC50 [3]: 25 nM | EC50 [4]: 24 nM | EC50 [5]: 21 nM | binding result [6]: no binding (tested: 1 µM) | binding result [7]: no binding (tested: 1 µM) | binding result [8]: no binding (tested: 1 µM) | binding result [9]: no binding (tested: 1 µM) | binding result [10]: no binding (tested: 1 µM) | binding result [11]: no binding (tested: 1 µM) | IC50 [12]: 98 nM
B1: F0103275B05 (VHH)
VHH: EVQLVESGGGLVQPGGSLRLSCAASGSIFNINSMAWYRRAPGKQRELVASSTNGGSTNYADSVKGRFTISRDNAKRVYLQMNSLTPEDTAVYYCNALLQPSIYDISRTYWGQGTLVTVSS
notes: entry includes the FLAG-HIS6 tag; also called F0103275B05 (parental)-FLAG-HIS6
